Results published in IntAct's records for PubMed 26235031.

B1: Adhesion G protein-coupled receptor L3 (Mus musculus), Q80TS3 (parent)
chain: MWPPQLLILTMLLAPVVHGGKHNERHPALAAPLRHAERSPGGALPPRHLLQQPAAERSTAHRGQGPRGAARGVRGPGAPGAQIAAQAFSRAPIPMAVVRRELSCESYPIELRCPGTDVIMIESANYGRTDDKICDSDPAQMENIRCYLPDAYKIMSQRCNNRTQCAVVAGPDVFPDPCPGTYKYLEVQYECVPYKVEQKVFLCPGLLKGVYQSEHLFESDHQSGAWCKDPLQASDKIYYMPWTPYRTDTLTEYSSKDDFIAGRPTTTYKLPHRVDGTGFVVYDGALFFNKERTRNIVKFDLRTRIKSGEAIIANANYHDTSPYRWGGKSDIDLAVDENGLWVIYATEQNNGKIVISQLNPYTLRIEGTWDTAYDKRSASNAFMICGILYVVKSVYEDDDNEATGNKIDYIYNTDQSKDSLVDVPFPNSYQYIAAVDYNPRDNLLYVWNNYHVVKYSLDFGPLDSRSGPVHHGQVSYISPPIHLDSELERPPVRGISTTGSLGMGSTTTSTTLRTTTWNIGRSTTASLPGRRNRSTSTPSPAVEVLDDVTTHLPSAASQIPAMEESCEAVEAREIMWFKTRQGQVAKQPCPAGTIGVSTYLCLAPDGIWDPQGPDLSNCSSPWVNHITQKLKSGETAANIARELAEQTRNHLNAGDITYSVRAMDQLVGLLDVQLRNLTPGGKDSAARSLNKLQKRERSCRAYVQAMVETVNNLLQPQALNAWRDLTTSDQLRAATMLLDTVEESAFVLADNLLKTDIVRENTDNIQLEVARLSTEGNLEDLKFPENMGHGSTIQLSANTLKQNGRNGEIRVAFVLYNNLGPYLSTENASMKLGTEAMSTNHSVIVNSPVITAAINKEFSNKVYLADPVVFTVKHIKQSEENFNPNCSFWSYSKRTMTGYWSTQGCRLLTTNKTHTTCSCNHLTNFAVLMAHVEVKHSDAVHDLLLDVITWVGILLSLVCLLICIFTFCFFRGLQSDRNTIHKNLCISLFVAELLFLIGINRTDQPIACAVFAALLHFFFLAAFTWMFLEGVQLYIMLVEVFESEHSRRKYFYLVGYGMPALIVAVSAAVDYRSYGTDKVCWLRLDTYFIWSFIGPATLIIMLNVIFLGIALYKMFHHTAILKPESGCLDNINYEDNRPFIKSWVIGAIALLCLLGLTWAFGLMYINESTVIMAYLFTIFNSLQGMFIFIFHCVLQKKVRKEYGKCLRTHCCSGKSTESSIGSGKTSGSRTPGRYSTGSQSRIRRMWNDTVRKQSESSFITGDINSSASLNREGLLNNARDTSVMDTLPLNGNHGNSYSIAGGEYLSNCVQIIDRGYNHNETALEKKILKELTSNYIPSYLNNHERSSEQNRNMMNKLVNNLGSGSEDDAIVLDDAASFNHEESLGLELIHEESDAPLLPPRVYSTDNHQPHHYSRRRFPQDHSESFFPLLTDEHTEDLQSPHRDSLYTSMPALAGVPAADSVTTSTQTEAAAAKGGDAEDVYYKSMPNLGSRNHVHPLHAYYQLGRGSSDGFIVPPNKDGASPEGTSKGPAHLVTSL
partner: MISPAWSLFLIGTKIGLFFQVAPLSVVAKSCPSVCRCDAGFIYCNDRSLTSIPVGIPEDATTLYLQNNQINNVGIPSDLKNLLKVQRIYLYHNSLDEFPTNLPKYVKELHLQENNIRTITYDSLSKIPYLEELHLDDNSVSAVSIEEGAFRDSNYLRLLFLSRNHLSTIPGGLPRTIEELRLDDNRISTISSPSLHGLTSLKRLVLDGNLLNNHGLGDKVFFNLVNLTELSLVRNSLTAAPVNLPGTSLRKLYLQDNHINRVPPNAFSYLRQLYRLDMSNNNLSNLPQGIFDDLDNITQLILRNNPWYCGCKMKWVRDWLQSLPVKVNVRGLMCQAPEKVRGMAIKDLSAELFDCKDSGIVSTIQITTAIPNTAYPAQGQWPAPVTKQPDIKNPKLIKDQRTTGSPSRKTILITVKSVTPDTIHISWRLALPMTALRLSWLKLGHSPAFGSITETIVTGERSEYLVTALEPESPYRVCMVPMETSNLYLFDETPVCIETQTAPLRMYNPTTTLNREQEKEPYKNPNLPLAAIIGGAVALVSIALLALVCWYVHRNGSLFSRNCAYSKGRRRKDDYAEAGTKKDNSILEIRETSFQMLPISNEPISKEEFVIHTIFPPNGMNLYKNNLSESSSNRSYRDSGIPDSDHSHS
B2: Leucine-rich repeat transmembrane protein FLRT3 (Mus musculus), Q8BGT1 (parent)
chain: B1 partner

Variants of: B1
Conditions: with flrt3_mouse Flrt3, Q8BGT1

| Variant | effect of a mutation on the interaction |
| --- | --- |
| D332A | decreasing interaction strength |
| Y323A | disrupting interaction strength |

Variants of: B2
Conditions: with agrl3_mouse Adgrl3, Q80TS3

| Variant | effect of a mutation on the interaction |
| --- | --- |
| R117T | decreasing interaction strength |
| F160A | decreasing interaction strength |
| F160N | disrupting interaction strength |
